Results published in the RNAGym collection of RNA variant scans (doi:10.1093/molbev/msab373).

B1: Azoarcus group I ribozyme (parent)
chain: GUGCCUUGCGCCGGGAAACCACGCAAGGGAUGGUGUCAAAUUCGGCGAAACCUAAGCGCCCGCCCGGGCGUAUGGCAACGCCGAGCCAAGCUUCGGCGCCUGCGCCGAUGAAGGUGUAGAGACUAGACGGCACCCACCUAAGGCAAACGCUAUGGUGAAGGCAUAGUCCAGGGAGUGGCGAAAGUCACACAAACCGG

Variants of: B1
Test: reverse-splicing fitness (ratio to wild type); higher = more active; in vitro selection; Mg2+ level not given
Outline: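 An in vitro group I ribozyme library with randomized positions was T7-transcribed and gel-purified. In triplicate, 10 pmol RNA in EPPS pH 7.5 was reacted with 50 pmoles of a 30-nt RNA substrate for 1 h at 37 °C across several added MgCl2 levels (1–48 mM), then stopped with EDTA. Products were reverse transcribed from a substrate-complementary primer, PCR-amplified and sequenced (HiSeq 4000). Fitness is a variant's read proportion after selection over that before, normalised to wild type.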

Q: Which reverse-splicing fitness does the source give for C82A A111C A120C A145G U176C here?
A: 0.0274

Q: Which reverse-splicing fitness does the source give for C82A A111C A120C A145G C150G C169G U176C here?
A: 0.0131

Q: With C82A A111C A120C A145G C150G C169G U176G as the variant, how does the reverse-splicing fitness read?
A: 0.00642

Q: With C82A A111C A120C A145G C150G C169G U176A as the variant, how does the reverse-splicing fitness read?
A: 0.0109

Q: For C82A A111C A120C A145G C150G, which reverse-splicing fitness is on record?
A: 0.00852

Q: Which reverse-splicing fitness does the source give for C82A A111C A120C A145G C150U here?
A: 0.0241

Q: With C82A A111C A120C A145G C150A as the variant, how does the reverse-splicing fitness read?
A: 0.0108

Q: For C82A A111C A120C A145G C150A U176G, which reverse-splicing fitness is on record?
A: 0.00865

Q: With C82A A111C A120C A145G C150A U176A as the variant, how does the reverse-splicing fitness read?
A: 0.00956

Q: Which reverse-splicing fitness does the source give for C82A A111C A120C A145G C150A U176C here?
A: 0.0232

Q: With C82A A111C A120C A145G C150G C169U as the variant, how does the reverse-splicing fitness read?
A: 0.00903

Q: Which reverse-splicing fitness does the source give for C82A A111C A120C A145G C150G C169A here?
A: 0.00894

Q: Which reverse-splicing fitness does the source give for C82A A111C A120C A145G C150G C169G here?
A: 0.00793

Q: With C82A A111C A120C A145C C150U as the variant, how does the reverse-splicing fitness read?
A: 0.0124

Q: With C82A A111C A120C A145C C150A as the variant, how does the reverse-splicing fitness read?
A: 0.0107

Q: For C82A A111C A120C A145C C150G, which reverse-splicing fitness is on record?
A: 0.00873

Q: For C82A A111C A120C A145C C150G C169A U176A, which reverse-splicing fitness is on record?
A: 0.00949

Q: For C82A A111C A120C A145C C150G C169A U176C, which reverse-splicing fitness is on record?
A: 0.00798

Q: For C82A A111C A120C A145C C150G C169A U176G, which reverse-splicing fitness is on record?
A: 0.00767

Q: For C82A A111C A120C A145C C169A, which reverse-splicing fitness is on record?
A: 0.00691

Q: For C82A A111C A120C A145C C169G, which reverse-splicing fitness is on record?
A: 0.00972

Q: With C82A A111C A120C A145C C169U as the variant, how does the reverse-splicing fitness read?
A: 0.0116

Q: Which reverse-splicing fitness does the source give for C82A A111C A120C A145G C169U U176G here?
A: 0.00652

Q: With C82A A111C A120C A145G C169U U176C as the variant, how does the reverse-splicing fitness read?
A: 0.0138

Q: With C82A A111C A120C A145G C169U U176A as the variant, how does the reverse-splicing fitness read?
A: 0.0165

Q: With C82A A111C A120C A145G C150U C169U U176A as the variant, how does the reverse-splicing fitness read?
A: 0.0121

Q: For C82A A111C A120C A145G C150U C169U U176G, which reverse-splicing fitness is on record?
A: 0.00717

Q: For C82A A111C A120C A145G C150U C169U U176C, which reverse-splicing fitness is on record?
A: 0.0128

Q: With C82A A111C A120C A145C C150A C169U as the variant, how does the reverse-splicing fitness read?
A: 0.0105

Q: Which reverse-splicing fitness does the source give for C82A A111C A120C A145C C150A C169A here?
A: 0.00755

Q: Which reverse-splicing fitness does the source give for C82A A111C A120C A145C C150A C169G here?
A: 0.00813

Q: Which reverse-splicing fitness does the source give for C82A A111C A120C A145C C150U C169G here?
A: 0.00741

Q: Which reverse-splicing fitness does the source give for C82A A111C A120C A145C C150U C169U here?
A: 0.0108

Q: With C82A A111C A120C A145C C150U C169A as the variant, how does the reverse-splicing fitness read?
A: 0.0105

Q: For C82A A111C A120C A145C C150A C169A U176C, which reverse-splicing fitness is on record?
A: 0.00935

Q: With C82A A111C A120C A145C C150A C169A U176A as the variant, how does the reverse-splicing fitness read?
A: 0.0167

Q: With C82A A111C A120C A145C C150A C169A U176G as the variant, how does the reverse-splicing fitness read?
A: 0.00733

Q: For C82A A111C A120C A145C C169A U176G, which reverse-splicing fitness is on record?
A: 0.00646

Q: With C82A A111C A120C A145C C169A U176A as the variant, how does the reverse-splicing fitness read?
A: 0.0158

Q: For C82A A111C A120C A145C C169A U176C, which reverse-splicing fitness is on record?
A: 0.00859

Q: With C82A A111C A120C A145G C150A C169A U176G as the variant, how does the reverse-splicing fitness read?
A: 0.009

Q: With C82A A111C A120C A145G C150A C169A U176C as the variant, how does the reverse-splicing fitness read?
A: 0.019

Q: For C82A A111C A120C A145G C150A C169A U176A, which reverse-splicing fitness is on record?
A: 0.0209

Q: For C82A A111C A120C A145U C150U C169A, which reverse-splicing fitness is on record?
A: 0.00985

Q: With C82A A111C A120C A145G C150U C169A U176A as the variant, how does the reverse-splicing fitness read?
A: 0.0159

Q: With C82A A111C A120C A145G C150U C169A U176C as the variant, how does the reverse-splicing fitness read?
A: 0.0162

Q: For C82A A111C A120C A145G C150U C169A U176G, which reverse-splicing fitness is on record?
A: 0.00826

Q: With C82A A111C A120C A145C C150U U176A as the variant, how does the reverse-splicing fitness read?
A: 0.00941

Q: With C82A A111C A120C A145C C150U U176G as the variant, how does the reverse-splicing fitness read?
A: 0.00571

Q: Which reverse-splicing fitness does the source give for C82A A111C A120C A145C C150U U176C here?
A: 0.0125

Q: For C82A A111C, which reverse-splicing fitness is on record?
A: 0.228

Q: Which reverse-splicing fitness does the source give for C82A A111C A120C A145C C150A C169G U176A here?
A: 0.0296

Q: With C82A A111C A120C A145C C150A C169G U176C as the variant, how does the reverse-splicing fitness read?
A: 0.024

Q: Which reverse-splicing fitness does the source give for C82A A111C A120C A145C C150A C169G U176G here?
A: 0.00757

Q: With C82A A111C A120C A145C C150A U176A as the variant, how does the reverse-splicing fitness read?
A: 0.0106

Q: Which reverse-splicing fitness does the source give for C82A A111C A120C A145C C150A U176C here?
A: 0.011

Q: With C82A A111C A120C A145C C150A U176G as the variant, how does the reverse-splicing fitness read?
A: 0.00581

Q: For C82A A111C A120C A145U C150A C169U U176C, which reverse-splicing fitness is on record?
A: 0.0143

Q: Which reverse-splicing fitness does the source give for C82A A111C A120C A145U C150A C169U U176G here?
A: 0.00918

Q: Which reverse-splicing fitness does the source give for C82A A111C A120C A145U C150A C169U U176A here?
A: 0.014

Q: With C82A A111C A120C A145G C169G as the variant, how does the reverse-splicing fitness read?
A: 0.00846

Q: Which reverse-splicing fitness does the source give for C82A A111C A120C A145G C169U here?
A: 0.0141

Q: For C82A A111C A120C A145G C169A, which reverse-splicing fitness is on record?
A: 0.00886

Q: With C82A A111C A120C A145C C150U C169U U176A as the variant, how does the reverse-splicing fitness read?
A: 0.0135

Q: Which reverse-splicing fitness does the source give for C82A A111C A120C A145C C150U C169U U176G here?
A: 0.00738

Q: Which reverse-splicing fitness does the source give for C82A A111C A120C A145C C150U C169U U176C here?
A: 0.0105

Q: For C82A A111C A120C A145C C169G U176C, which reverse-splicing fitness is on record?
A: 0.0213

Q: With C82A A111C A120C A145C C169G U176G as the variant, how does the reverse-splicing fitness read?
A: 0.0074

Q: With C82A A111C A120C A145C C169G U176A as the variant, how does the reverse-splicing fitness read?
A: 0.0258

Q: With C82A A111C A120C A145C C150G U176C as the variant, how does the reverse-splicing fitness read?
A: 0.00754

Q: With C82A A111C A120C A145C C150G U176G as the variant, how does the reverse-splicing fitness read?
A: 0.0029

Q: For C82A A111C A120C A145C C150G U176A, which reverse-splicing fitness is on record?
A: 0.00409

Q: Which reverse-splicing fitness does the source give for C82A A111C A120C A145U C150G C169G here?
A: 0.00675

Q: Which reverse-splicing fitness does the source give for C82A A111C A120C A145U C150G C169A here?
A: 0.00977

Q: For C82A A111C A120C A145U C150G C169U, which reverse-splicing fitness is on record?
A: 0.01

Q: Which reverse-splicing fitness does the source give for C82A A111C A120C A145G C150G C169U U176C here?
A: 0.0109

Q: For C82A A111C A120C A145G C150G C169U U176A, which reverse-splicing fitness is on record?
A: 0.0109

Q: Which reverse-splicing fitness does the source give for C82A A111C A120C A145G C150G C169U U176G here?
A: 0.00808

Q: Which reverse-splicing fitness does the source give for C82A A111C A120C A145G C150A C169U U176C here?
A: 0.0136

Q: With C82A A111C A120C A145G C150A C169U U176A as the variant, how does the reverse-splicing fitness read?
A: 0.0154

Q: With C82A A111C A120C A145G C150A C169U U176G as the variant, how does the reverse-splicing fitness read?
A: 0.00795

Q: With C82A A111C A120C A145G C150U C169U as the variant, how does the reverse-splicing fitness read?
A: 0.0133

Q: Which reverse-splicing fitness does the source give for C82A A111C A120C A145G C150U C169A here?
A: 0.0108

Q: Which reverse-splicing fitness does the source give for C82A A111C A120C A145G C150U C169G here?
A: 0.00829
